Assay results: publication PMC5457487, “Structural Basis for Mitotic Centrosome Assembly in Flies” (Cell, 2017)

B1: Cnn CM2 WT (GGS-H1082-L1148) (domain or fragment, Drosophila melanogaster)
chain: GGSHDCAKVDLENAELRRKLIRTKRAFEDTYEKLRMANKAKAQVEKDIKNQILKTHNVLRNVRSNMENEL
notes: GGS motif left at the N terminus after TEV cleavage; Centrosomin (Cnn), Drosophila, CM2 domain, aa1082-1148; The dimer holds a Zn2+ ion coordinated by H1082 and C1084; also called Cnn-motif 2 domain; Cnn_(1082-1148); source: E. coli C41 (DE3), purified (Ni-NTA, TEV cleavage, SEC); not shown: His-tagged lipoyl domain (Bacillus stearothermophilus dihydrolipoamide acetyltransferase), N-terminal, …

Legend:
[1] = molecular target: the molecule itself; assay: SEC-MALS; Superose 6 column; MBP-PReM apo or with addition of CM2 WT or point mutants; 50 mM Tris-HCl pH7.5, 150 mM NaCl, 10 μM ZnCl2, 5 mM β-mercaptoethanol
[2] = molecular target: B1; assay: crystal structure; LZ:CM2 complexes of various LZ lengths and LZ-L535E:CM2; sitting drops, 21°C; conditions: both partners purified
[3] = molecular target: the molecule itself; assay: SEC-MALS; S75 10/300 column; 50 mM Tris-HCl pH7.5, 150 mM NaCl, 10 μM ZnCl2, 5 mM β-mercaptoethanol; proteins alone or mixed
[4] = molecular target: B1; assay: as above; conditions: both partners purified

| Binder | stoichiometry N [3] | further results |
| --- | --- | --- |
| MBP-PReM (domain or fragment, Drosophila melanogaster, UniProt P54623-2 403-608, looked up, Centrosomin (Cnn), Drosophila, phospho-regulated multimerization (PReM) domain, aa403-608; also called MBP-PReM fusion; Cnn-PReM (aa403-608); source: E. coli B834 (DE3), purified (Ni-NTA, SEC); not shown: MBP, N-terminal, kept) QLQTEVKKKTANLQNLVNKELWEKNREVERLTKLLANQQKTLPQISEESAGEADLQQSFTEAEYMRALERNKLLQRKVDVLFQRLADDQQNSAVIGQLRLELQQARTEVETADKWRLECVDVCSVLTNRLEELAGFLNSLLKHKDVLGVLAADRRNAMRKAVDRSLDLSKSLNMTLNITATSLADQSLAQLCNLSEILYTEGDASH |  | stoichiometry N [1]: 2 |
| Cnn LZ (GPM-D490-L552) (domain or fragment, Drosophila melanogaster, source: E. coli, purified as complex with CM2; not shown: His6, N-terminal, cleaved; MBP, N-terminal, cleaved) GPMDQQNSAVIGQLRLELQQARTEVETADKWRLECVDVCSVLTNRLEELAGFLNSLLKHKDVLGVL |  | binding result [2]: binds |
| B1 | 2 |  |
| CM2-T1133E (domain or fragment, Drosophila melanogaster, GGS motif left after TEV cleavage, as told for the WT CM2 construct of the same vector; Centrosomin (Cnn), Drosophila, CM2 domain, aa1082-1148, T1133E; also called CM2 (aa1082-1148 T1133E); source: E. coli C41 (DE3), purified; not shown: His-tagged lipoyl domain (Bacillus stearothermophilus dihydrolipoamide acetyltransferase), N-terminal, cleaved) GGSHDCAKVDLENAELRRKLIRTKRAFEDTYEKLRMANKAKAQVEKDIKNQILKEHNVLRNVRSNMENEL | 2 |  |
| CM2-L1137E (domain or fragment, Drosophila melanogaster, GGS motif left after TEV cleavage, as told for the WT CM2 construct of the same vector; Centrosomin (Cnn), Drosophila, CM2 domain, aa1082-1148, L1137E; also called CM2 (aa1082-1148 L1137E); source: E. coli C41 (DE3), purified; not shown: His-tagged lipoyl domain (Bacillus stearothermophilus dihydrolipoamide acetyltransferase), N-terminal, cleaved) GGSHDCAKVDLENAELRRKLIRTKRAFEDTYEKLRMANKAKAQVEKDIKNQILKTHNVERNVRSNMENEL | 2 |  |
| CM2-I1126E (domain or fragment, Drosophila melanogaster, GGS motif left after TEV cleavage, as told for the WT CM2 construct of the same vector; Centrosomin (Cnn), Drosophila, CM2 domain, aa1082-1148, I1126E; also called CM2 (aa1082-1148 I1126E); source: E. coli C41 (DE3), purified; not shown: His-tagged lipoyl domain (Bacillus stearothermophilus dihydrolipoamide acetyltransferase), N-terminal, cleaved) GGSHDCAKVDLENAELRRKLIRTKRAFEDTYEKLRMANKAKAQVEKDEKNQILKTHNVLRNVRSNMENEL | 2 |  |
| Cnn LZ WT (GPM-D490-K544) (domain or fragment, Drosophila melanogaster, Centrosomin (Cnn), Drosophila, LZ domain, aa490-544; Homo-tetramer alone in solution; a parallel homo-dimer in the 2:2 complex with CM2; also called LZ domain; leucine zipper; source: E. coli B834 (DE3), purified (Ni-NTA, SEC; tag cleaved with GST-3C protease, reverse Ni-NTA, SEC); not shown: His6, N-terminal, cleaved; MBP, N-terminal, cleaved) GPMDQQNSAVIGQLRLELQQARTEVETADKWRLECVDVCSVLTNRLEELAGFLNSLLK | 4 | stoichiometry N [4]: 1 LZ per CM2 (printed as 2:2) |
| LZ-L535E (domain or fragment, Drosophila melanogaster, N-terminal residues as printed for the WT LZ construct of the same vector; Centrosomin (Cnn), Drosophila, LZ domain, aa490-544, L535E; also called LZ (aa490-544 L535E); Cnn_(490-544) L535E; source: E. coli B834 (DE3), purified; not shown: His6, N-terminal, cleaved; MBP, N-terminal, cleaved) GPMDQQNSAVIGQLRLELQQARTEVETADKWRLECVDVCSVLTNRLEEEAGFLNSLLK |  | stoichiometry N [4]: 1 LZ per CM2 (printed as 2:2) |
